According to the RNAGym collection of RNA variant scans (doi:10.1093/molbev/msab373):

B1: Azoarcus group I ribozyme (parent)
chain: GUGCCUUGCGCCGGGAAACCACGCAAGGGAUGGUGUCAAAUUCGGCGAAACCUAAGCGCCCGCCCGGGCGUAUGGCAACGCCGAGCCAAGCUUCGGCGCCUGCGCCGAUGAAGGUGUAGAGACUAGACGGCACCCACCUAAGGCAAACGCUAUGGUGAAGGCAUAGUCCAGGGAGUGGCGAAAGUCACACAAACCGG

Variants of: B1
Test: reverse-splicing fitness (ratio to wild type); higher = more active; in vitro selection; Mg2+ level not given
In short: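 An in vitro group I ribozyme library with randomized positions was T7-transcribed and gel-purified. In triplicate, 10 pmol RNA in EPPS pH 7.5 was reacted with 50 pmoles of a 30-nt RNA substrate for 1 h at 37 °C across several added MgCl2 levels (1–48 mM), then stopped with EDTA. Products were reverse transcribed from a substrate-complementary primer, PCR-amplified and sequenced (HiSeq 4000). Fitness is a variant's read proportion after selection over that before, normalised to wild type.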

In order of rising reverse-splicing fitness:
1. GUGCCUUGCGCCGGGAAACCACGCAAGGGAUGGUGUCAAAUUCGGCGAAACCUAAGCGCCCGCCCGGGCGUAUGGCAACGCGGAGCCAAGCUUCGGCGCCUGCGCCGAUGGAGGUGUAGUGACUAGACGGCACCCACCUAAGGCCAACGCUAUGGUGAAGGCAUAGUCAAGGGAGCGGCGAAAGUCACACAAACCGG [C82G A111G A120U A145C C169A U176C]  0.00168
2. GUGCCUUGCGCCGGGAAACCACGCAAGGGAUGGUGUCAAAUUCGGCGAAACCUAAGCGCCCGCCCGGGCGUAUGGCAACGCGGAGCCAAGCUUCGGCGCCUGCGCCGAUGGAGGUGUAGUGACUAGACGGCACCCACCUAAGGCCAACGCUAUGGUGAAGGCAUAGUCAAGGGAGGGGCGAAAGUCACACAAACCGG [C82G A111G A120U A145C C169A U176G]  0.00182
3. GUGCCUUGCGCCGGGAAACCACGCAAGGGAUGGUGUCAAAUUCGGCGAAACCUAAGCGCCCGCCCGGGCGUAUGGCAACGCGGAGCCAAGCUUCGGCGCCUGCGCCGAUGGAGGUGUAGUGACUAGACGGCACCCACCUAAGGCCAACGUUAUGGUGAAGGCAUAGUCGAGGGAGGGGCGAAAGUCACACAAACCGG [C82G A111G A120U A145C C150U C169G U176G]  0.00185
4. GUGCCUUGCGCCGGGAAACCACGCAAGGGAUGGUGUCAAAUUCGGCGAAACCUAAGCGCCCGCCCGGGCGUAUGGCAACGCGGAGCCAAGCUUCGGCGCCUGCGCCGAUGGAGGUGUAGUGACUAGACGGCACCCACCUAAGGCCAACGCUAUGGUGAAGGCAUAGUCAAGGGAGAGGCGAAAGUCACACAAACCGG [C82G A111G A120U A145C C169A U176A]  0.00186
5. GUGCCUUGCGCCGGGAAACCACGCAAGGGAUGGUGUCAAAUUCGGCGAAACCUAAGCGCCCGCCCGGGCGUAUGGCAACGCGGAGCCAAGCUUCGGCGCCUGCGCCGAUGGAGGUGUAGUGACUAGACGGCACCCACCUAAGGCCAACGCUAUGGUGAAGGCAUAGUCAAGGGAGUGGCGAAAGUCACACAAACCGG [C82G A111G A120U A145C C169A]  0.00211
6. GUGCCUUGCGCCGGGAAACCACGCAAGGGAUGGUGUCAAAUUCGGCGAAACCUAAGCGCCCGCCCGGGCGUAUGGCAACGCGGAGCCAAGCUUCGGCGCCUGCGCCGAUGGAGGUGUAGUGACUAGACGGCACCCACCUAAGGCCAACGUUAUGGUGAAGGCAUAGUCUAGGGAGUGGCGAAAGUCACACAAACCGG [C82G A111G A120U A145C C150U C169U]  0.00328
7. GUGCCUUGCGCCGGGAAACCACGCAAGGGAUGGUGUCAAAUUCGGCGAAACCUAAGCGCCCGCCCGGGCGUAUGGCAACGCGGAGCCAAGCUUCGGCGCCUGCGCCGAUGGAGGUGUAGUGACUAGACGGCACCCACCUAAGGCCAACGCUAUGGUGAAGGCAUAGUCGAGGGAGUGGCGAAAGUCACACAAACCGG [C82G A111G A120U A145C C169G]  0.00347
8. GUGCCUUGCGCCGGGAAACCACGCAAGGGAUGGUGUCAAAUUCGGCGAAACCUAAGCGCCCGCCCGGGCGUAUGGCAACGCGGAGCCAAGCUUCGGCGCCUGCGCCGAUGGAGGUGUAGUGACUAGACGGCACCCACCUAAGGCCAACGCUAUGGUGAAGGCAUAGUCUAGGGAGUGGCGAAAGUCACACAAACCGG [C82G A111G A120U A145C C169U]  0.00478
9. GUGCCUUGCGCCGGGAAACCACGCAAGGGAUGGUGUCAAAUUCGGCGAAACCUAAGCGCCCGCCCGGGCGUAUGGCAACGCGGAGCCAAGCUUCGGCGCCUGCGCCGAUGGAGGUGUAGUGACUAGACGGCACCCACCUAAGGCGAACGAUAUGGUGAAGGCAUAGUCAAGGGAGCGGCGAAAGUCACACAAACCGG [C82G A111G A120U A145G C150A C169A U176C]  0.00503
10. GUGCCUUGCGCCGGGAAACCACGCAAGGGAUGGUGUCAAAUUCGGCGAAACCUAAGCGCCCGCCCGGGCGUAUGGCAACGCGGAGCCAAGCUUCGGCGCCUGCGCCGAUGGAGGUGUAGUGACUAGACGGCACCCACCUAAGGCCAACGCUAUGGUGAAGGCAUAGUCCAGGGAGGGGCGAAAGUCACACAAACCGG [C82G A111G A120U A145C U176G]  0.0054
11. GUGCCUUGCGCCGGGAAACCACGCAAGGGAUGGUGUCAAAUUCGGCGAAACCUAAGCGCCCGCCCGGGCGUAUGGCAACGCGGAGCCAAGCUUCGGCGCCUGCGCCGAUGGAGGUGUAGUGACUAGACGGCACCCACCUAAGGCGAACGAUAUGGUGAAGGCAUAGUCAAGGGAGUGGCGAAAGUCACACAAACCGG [C82G A111G A120U A145G C150A C169A]  0.00593
12. GUGCCUUGCGCCGGGAAACCACGCAAGGGAUGGUGUCAAAUUCGGCGAAACCUAAGCGCCCGCCCGGGCGUAUGGCAACGCGGAGCCAAGCUUCGGCGCCUGCGCCGAUGGAGGUGUAGUGACUAGACGGCACCCACCUAAGGCGAACGAUAUGGUGAAGGCAUAGUCAAGGGAGAGGCGAAAGUCACACAAACCGG [C82G A111G A120U A145G C150A C169A U176A]  0.00843
13. GUGCCUUGCGCCGGGAAACCACGCAAGGGAUGGUGUCAAAUUCGGCGAAACCUAAGCGCCCGCCCGGGCGUAUGGCAACGCGGAGCCAAGCUUCGGCGCCUGCGCCGAUGGAGGUGUAGUGACUAGACGGCACCCACCUAAGGCCAACGCUAUGGUGAAGGCAUAGUCCAGGGAGAGGCGAAAGUCACACAAACCGG [C82G A111G A120U A145C U176A]  0.0131
14. GUGCCUUGCGCCGGGAAACCACGCAAGGGAUGGUGUCAAAUUCGGCGAAACCUAAGCGCCCGCCCGGGCGUAUGGCAACGCGGAGCCAAGCUUCGGCGCCUGCGCCGAUGGAGGUGUAGUGACUAGACGGCACCCACCUAAGGCCAACGCUAUGGUGAAGGCAUAGUCCAGGGAGCGGCGAAAGUCACACAAACCGG [C82G A111G A120U A145C U176C]  0.0205
15. GUGCCUUGCGCCGGGAAACCACGCAAGGGAUGGUGUCAAAUUCGGCGAAACCUAAGCGCCCGCCCGGGCGUAUGGCAACGCGGAGCCAAGCUUCGGCGCCUGCGCCGAUGGAGGUGUAGUGACUAGACGGCACCCACCUAAGGCGAACGCUAUGGUGAAGGCAUAGUCCAGGGAGUGGCGAAAGUCACACAAACCGG [C82G A111G A120U A145G]  0.0663
